Test results as given in paper PMC11800616 (Mobile DNA, 2025).
Like-named read-outs stand apart in the source and are kept apart here.

Experiments:
[1] = biological target: T1, LINE-1 ORF2p (translation product of L1 ORF2), endogenous (human (endogenous in N2102Ep and …, UniProt O00370 1-1275)); assay: affinity purification with mass spectrometry
[2] = biological target: T1, LINE-1 ORF2p (translation product of L1 …); assay: affinity purification with mass spectrometry; remark: listed apart in the source

T1 sequence (O00370 whole entry): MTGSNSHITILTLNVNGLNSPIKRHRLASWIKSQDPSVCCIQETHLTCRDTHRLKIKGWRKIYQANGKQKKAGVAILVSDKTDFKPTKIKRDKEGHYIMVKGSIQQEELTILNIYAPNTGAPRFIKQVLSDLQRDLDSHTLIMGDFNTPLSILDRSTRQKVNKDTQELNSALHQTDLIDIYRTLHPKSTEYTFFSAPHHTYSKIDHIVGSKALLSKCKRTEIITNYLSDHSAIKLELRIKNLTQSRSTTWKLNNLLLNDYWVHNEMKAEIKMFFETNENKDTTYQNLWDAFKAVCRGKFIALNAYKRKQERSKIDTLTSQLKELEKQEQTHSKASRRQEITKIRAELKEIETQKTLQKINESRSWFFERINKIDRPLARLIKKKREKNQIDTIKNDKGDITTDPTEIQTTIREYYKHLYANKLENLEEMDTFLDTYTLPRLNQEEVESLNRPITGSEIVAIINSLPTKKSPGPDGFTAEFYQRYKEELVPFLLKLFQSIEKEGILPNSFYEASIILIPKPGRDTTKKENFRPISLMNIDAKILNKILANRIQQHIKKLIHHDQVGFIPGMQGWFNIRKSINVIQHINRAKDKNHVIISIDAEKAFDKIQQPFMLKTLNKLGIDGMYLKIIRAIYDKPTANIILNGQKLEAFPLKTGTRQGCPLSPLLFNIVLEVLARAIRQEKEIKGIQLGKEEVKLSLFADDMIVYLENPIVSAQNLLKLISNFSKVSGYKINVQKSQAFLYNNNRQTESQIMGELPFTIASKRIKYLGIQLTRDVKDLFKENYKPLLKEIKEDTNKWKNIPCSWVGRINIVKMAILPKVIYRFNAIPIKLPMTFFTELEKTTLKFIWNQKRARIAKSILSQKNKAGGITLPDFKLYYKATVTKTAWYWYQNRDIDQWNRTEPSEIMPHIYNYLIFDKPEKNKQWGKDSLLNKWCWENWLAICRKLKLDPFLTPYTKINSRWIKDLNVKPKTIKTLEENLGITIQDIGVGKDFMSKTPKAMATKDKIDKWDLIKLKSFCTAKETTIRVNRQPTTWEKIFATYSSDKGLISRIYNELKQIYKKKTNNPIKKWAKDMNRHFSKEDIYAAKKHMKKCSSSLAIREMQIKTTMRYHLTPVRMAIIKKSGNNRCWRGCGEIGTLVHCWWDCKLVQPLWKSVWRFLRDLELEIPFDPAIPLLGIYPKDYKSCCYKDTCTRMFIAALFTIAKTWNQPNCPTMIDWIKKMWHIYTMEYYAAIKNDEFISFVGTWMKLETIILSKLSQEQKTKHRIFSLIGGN

- ORF1p:ORF2p molar ratio in the affinity enriched fraction [1]: ~184 molar ratio (ORF1p per ORF2p)
- ORF1p:ORF2p molar ratio in the affinity enriched fraction [2]: ~279 molar ratio (ORF1p per ORF2p)
B1: LINE-1 ORF1p (translation product of L1 ORF1), endogenous (natural protein)
chain: MGKKQNRKTGNSKTQSASPPPKERSSSPATEQSWMENDFDELREEGFRRSNYSELREDIQTKGKEVENFEKNLEECITRITNTEKCLKELMELKTKARELREECRSLRSRCDQLEERVSAMEDEMNEMKREGKFREKRIKRNEQSLQEIWDYVKRPNLRLIGVPESDVENGTKLENTLQDIIQENFPNLARQANVQIQEIQRTPQRYSSRRATPRHIIVRFTKVEMKEKMLRAAREKGRVTLKGKPIRLTADLSAETLQARREWGPIFNILKEKNFQPRISYPAKLSFISEGEIKYFIDKQMLRDFVTTRPALKELLKEALNMERNNRYQPLQNHAKM
